± gives the uncertainty stated by the source.
Test: self-splicing fitness, log relative to wild type (ln ratio); higher = more splicing; Tetrahymena group I intron in knt gene, E. coli kanamycin selection, DiMSum; sequences stand for … in CUCUCU…GGAGGGAAAAGUUAUCAGGCAUGCACCUGGUAGCUAGUCUUUAAACCAAUAGAUUGCAUCGGUUUAAAAGGCAAGACCGUCAAAUUGCGGGAAAGGGGUCAACAGCCGUUCAGUACCAAGUCUCAGGGGAAACUUUGAGAUGGCCUUGCAAAGGGUAUGGUAAUAAGCUGACGGACAUGGUCCUAACCACGCAGCCAAGUCCUAAGUCAACAGAUCUUCUGUUGAUAUGGAUGCAGUUCACAGACUAAAUGUCGGUCGGGGAAGAUGUAUUCUUCUCAUAAGAUAUAGUCGGACCUCUCCUUAAUGGGAGCUAGCGGAUGAAGUGAUGCAACACUGGAGCCGCUGGGAACUAAUUUGUAUGCGAAAGUAUAUUGAUUAGUUUUGGAGUACUCGUGGUCG
How it was run: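 Colonies from six replicate transformations of E. coli BL21(DE3) were pooled and amplicon-sequenced on an Illumina HiSeq 2500. The library placed an intron with all eight P1ex-region nucleotides randomised inside the knt kanamycin-resistance gene on pET-22b(+), and cells grew overnight at 37°C or 30°C on LB agar with or without 25 μg/mL kanamycin (plus 100 μg/mL carbenicillin, 50 μM IPTG, 0.2% rhamnose). Fitness is the DiMSum error-weighted combination of wild-type-normalised replicate fold changes, kanamycin versus none.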

| Sequence | self-splicing fitness (ln) (30 °C) | self-splicing fitness (ln) (37 °C) |
| --- | --- | --- |
| AUAUAGCAAUAUUACGUGCA | -1.57 ± 0.16 | 0.00562 ± 0.16 |
| AUAUAGCAAUAUUACGUGCC | -1.82 ± 0.38 | -1.01 ± 0.41 |
| AUAUAGCAAUAUUACGUUGU | -3.79 ± 0.29 |  |
| AUAUAGCAAUAUUACGUUUA | -2.02 ± 0.25 | -1.63 ± 0.2 |
| AUCAAGCAAUAUUACGAAAC | -3.16 ± 0.2 | -3.17 ± 0.28 |
| AUCAAGCAAUAUUACGACAA | -1 ± 0.12 | -0.427 ± 0.12 |
| AUCAAGCAAUAUUACGACAG | -3.07 ± 0.17 | -1.7 ± 0.18 |
| AUCAAGCAAUAUUACGCACC | -0.849 ± 0.26 | -0.581 ± 0.31 |
| AUCAAGCAAUAUUACGCGAC | -2.01 ± 0.23 | -1.58 ± 0.22 |
| AUCAAGCAAUAUUACGCGGG | -2.86 ± 0.14 | -1.04 ± 0.12 |
| AUCAAGCAAUAUUACGCGGU | -4.07 ± 0.19 | -2.03 ± 0.16 |
| AUCAAGCAAUAUUACGCUCA | 0.0216 ± 0.073 | 0.342 ± 0.096 |
| AUCAAGCAAUAUUACGGAUA | -2.42 ± 0.16 | -1.83 ± 0.15 |
| AUCAAGCAAUAUUACGGGAA | -1.87 ± 0.13 | -0.563 ± 0.12 |
| AUCAAGCAAUAUUACGGGCU | -1.86 ± 0.079 | -0.884 ± 0.087 |
| AUCAAGCAAUAUUACGUAUC | -4.11 ± 0.21 | -2.76 ± 0.34 |
| AUCAAGCAAUAUUACGUUCC | -2.85 ± 0.13 | -0.598 ± 0.17 |
| AUCCAGCAAUAUUACGAAGC | -2.53 ± 0.16 | -2.28 ± 0.23 |
| AUCCAGCAAUAUUACGAGCA | -1.14 ± 0.14 | -1.1 ± 0.11 |
| AUCCAGCAAUAUUACGAGGC | -1.97 ± 0.16 | -1.41 ± 0.23 |
| AUCCAGCAAUAUUACGCACA | -0.451 ± 0.098 | 0.366 ± 0.1 |
| AUCCAGCAAUAUUACGCAGC | -1.43 ± 0.13 | -1.26 ± 0.2 |
| AUCCAGCAAUAUUACGCCAA | -2.78 ± 0.22 | -1.71 ± 0.18 |
| AUCCAGCAAUAUUACGCCCA | -0.76 ± 0.14 | -0.212 ± 0.15 |
| AUCCAGCAAUAUUACGCGAA | -0.821 ± 0.054 | -0.468 ± 0.07 |
| AUCCAGCAAUAUUACGCGAG | -0.838 ± 0.065 | -0.241 ± 0.078 |

| Sequence | self-splicing fitness (ln) (30 °C) | self-splicing fitness (ln) (37 °C) |
| --- | --- | --- |
| AUCCAGCAAUAUUACGCGCG | -2 ± 0.074 | -0.8 ± 0.1 |
| AUCCAGCAAUAUUACGCUAA | -0.717 ± 0.093 | -1.13 ± 0.077 |
| AUCCAGCAAUAUUACGCUAC | -4.03 ± 0.3 | -1.95 ± 0.24 |
| AUCCAGCAAUAUUACGCUCU | 0.335 ± 0.14 | 0.709 ± 0.15 |
| AUCCAGCAAUAUUACGGACG | 0.0252 ± 0.082 | -0.0752 ± 0.089 |
| AUCCAGCAAUAUUACGGCGA | -1.02 ± 0.098 | -0.399 ± 0.13 |
| AUCCAGCAAUAUUACGGGAC | -4.17 ± 0.27 | -3.04 ± 0.2 |
| AUCCAGCAAUAUUACGGGCA | -0.0628 ± 0.073 | -0.507 ± 0.083 |
| AUCCAGCAAUAUUACGGUAA | -1.02 ± 0.076 | -0.567 ± 0.073 |
| AUCCAGCAAUAUUACGGUAU | -2.88 ± 0.13 | -1.19 ± 0.12 |
| AUCCAGCAAUAUUACGUUGG | -4.05 ± 0.18 | -2.97 ± 0.16 |
| AUCGAGCAAUAUUACGAGGU | -3.26 ± 0.3 | -2.93 ± 0.4 |
| AUCGAGCAAUAUUACGAUCG | -2.9 ± 0.22 | -3.06 ± 0.34 |
| AUCGAGCAAUAUUACGCAGU | -2.07 ± 0.23 | -1.85 ± 0.33 |
| AUCGAGCAAUAUUACGCCAC |  | -2.54 ± 0.45 |
| AUCGAGCAAUAUUACGCCCC | -2.24 ± 0.44 |  |
| AUCGAGCAAUAUUACGCCGU | -2.52 ± 0.21 | -1.46 ± 0.31 |
| AUCGAGCAAUAUUACGCGGA | -2.55 ± 0.17 | -0.974 ± 0.11 |
| AUCGAGCAAUAUUACGCGUU | -2.01 ± 0.17 | -1.1 ± 0.17 |
| AUCGAGCAAUAUUACGGCAC | -3.16 ± 0.15 | -1.87 ± 0.16 |
| AUCGAGCAAUAUUACGGCGU | -0.0628 ± 0.11 | -0.183 ± 0.11 |
| AUCGAGCAAUAUUACGGUAC |  | -2.51 ± 0.41 |
| AUCGAGCAAUAUUACGGUAU | -2.46 ± 0.13 | -1.12 ± 0.11 |
| AUCGAGCAAUAUUACGUAGA | -3.09 ± 0.32 | -2.7 ± 0.38 |
| AUCGAGCAAUAUUACGUAUC | -2.86 ± 0.35 | -3.28 ± 0.37 |
| AUCGAGCAAUAUUACGUGCA | -2.85 ± 0.21 | -1.14 ± 0.13 |

| Sequence | self-splicing fitness (ln) (30 °C) | self-splicing fitness (ln) (37 °C) |
| --- | --- | --- |
| AUCUAGCAAUAUUACGAAGG | -3.42 ± 0.3 | -2.01 ± 0.32 |
| AUCUAGCAAUAUUACGAAUA |  | -0.668 ± 0.32 |
| AUCUAGCAAUAUUACGACAA | -1.76 ± 0.23 | 0.296 ± 0.19 |
| AUCUAGCAAUAUUACGACCU | -0.471 ± 0.11 | 0.729 ± 0.12 |
| AUCUAGCAAUAUUACGACGA | -0.367 ± 0.12 | -0.44 ± 0.12 |
| AUCUAGCAAUAUUACGACGU | 0.175 ± 0.057 | 0.669 ± 0.069 |
| AUCUAGCAAUAUUACGCAAG | -1.46 ± 0.17 | -1.29 ± 0.18 |
| AUCUAGCAAUAUUACGCACG | -1.37 ± 0.15 | -0.353 ± 0.14 |
| AUCUAGCAAUAUUACGCCUG | -0.828 ± 0.16 | -1.39 ± 0.23 |
| AUCUAGCAAUAUUACGCCUU | -0.764 ± 0.073 | 0.116 ± 0.095 |
| AUCUAGCAAUAUUACGCGGG | -3.32 ± 0.26 | -2.12 ± 0.23 |
| AUCUAGCAAUAUUACGCGUU | -1.76 ± 0.096 | -0.994 ± 0.1 |
| AUCUAGCAAUAUUACGCUCC | -0.7 ± 0.18 | -0.736 ± 0.25 |
| AUCUAGCAAUAUUACGCUGC | -2.92 ± 0.24 | -1.66 ± 0.18 |
| AUCUAGCAAUAUUACGCUUC | -3.91 ± 0.36 | -2.03 ± 0.23 |
| AUCUAGCAAUAUUACGGAAC | -4.03 ± 0.37 | -1.75 ± 0.24 |
| AUCUAGCAAUAUUACGGCCC | 0.132 ± 0.2 | -0.0846 ± 0.33 |
| AUCUAGCAAUAUUACGGCUC | -0.871 ± 0.16 | -0.185 ± 0.19 |
| AUCUAGCAAUAUUACGGGAA | -0.643 ± 0.13 | -0.903 ± 0.14 |
| AUCUAGCAAUAUUACGGUCA | -1.31 ± 0.15 | -0.841 ± 0.14 |
| AUCUAGCAAUAUUACGUUAC | -1.99 ± 0.27 | -1.74 ± 0.34 |
| AUGAAGCAAUAUUACGAAGA | -1.9 ± 0.13 | -0.83 ± 0.16 |
| AUGAAGCAAUAUUACGAGAA | -3.53 ± 0.27 | -1.07 ± 0.16 |
| AUGAAGCAAUAUUACGAGCC | -3.01 ± 0.38 | -3.27 ± 0.38 |

Reference: the supplement of paper PMC7877785
